Paper doi:10.64898/2025.12.08.693079

Key:
[1] = biological target: purified 20S core peptidase (CP) (S. cerevisiae) (UniProt P21242); assay: NADH-coupled ATPase displacement assay
[2] = biological target: purified 20S core peptidase (CP) (S. cerevisiae) (UniProt P21242); assay: Suc-LLVY-AMC peptidase activity titration

UniProt P21242, sequence (P21242 whole entry, looked up): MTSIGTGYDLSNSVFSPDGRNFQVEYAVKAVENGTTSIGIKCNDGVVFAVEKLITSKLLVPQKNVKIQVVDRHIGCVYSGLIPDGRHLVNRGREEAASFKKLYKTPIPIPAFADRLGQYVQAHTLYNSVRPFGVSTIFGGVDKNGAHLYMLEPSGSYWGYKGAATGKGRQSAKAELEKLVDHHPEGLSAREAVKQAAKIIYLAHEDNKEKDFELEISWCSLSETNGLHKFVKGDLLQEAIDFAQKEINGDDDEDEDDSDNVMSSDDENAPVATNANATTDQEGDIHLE

## 3x-Flag-tagged Blm10 (from UniProt P43583 1-2143) (natural protein)
[1]
  IC50: 3000 nM
[2]
  Kd: 65 nM
